Consider one substance from patent US20050118611.

In series [1] the target is NF-κB p50 homodimer (UniProt P19838). The settings on record: SELDI also detects p50 on IgκB surface; lost on stringent washing unlike XBY-6.
Series [2] concerns the target NF-κB p65 (RelA) homodimer (UniProt Q04206). Particulars: 1:1 stoichiometry; method not stated; cited from earlier work.

Chain of NF-κB p50 homodimer (P19838 1-433): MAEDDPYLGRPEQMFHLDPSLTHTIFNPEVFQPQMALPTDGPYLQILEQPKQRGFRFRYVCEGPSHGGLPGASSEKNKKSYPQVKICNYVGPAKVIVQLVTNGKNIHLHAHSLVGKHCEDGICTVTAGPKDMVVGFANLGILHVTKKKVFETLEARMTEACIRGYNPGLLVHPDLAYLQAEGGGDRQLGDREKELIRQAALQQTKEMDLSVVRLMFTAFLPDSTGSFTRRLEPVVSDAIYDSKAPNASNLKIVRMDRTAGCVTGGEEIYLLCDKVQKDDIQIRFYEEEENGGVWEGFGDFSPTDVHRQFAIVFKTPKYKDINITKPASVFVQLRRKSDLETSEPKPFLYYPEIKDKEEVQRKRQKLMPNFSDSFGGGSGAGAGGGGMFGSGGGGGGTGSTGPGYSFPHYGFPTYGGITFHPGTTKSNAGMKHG
Chain of NF-κB p65 (RelA) homodimer (Q04206 whole entry): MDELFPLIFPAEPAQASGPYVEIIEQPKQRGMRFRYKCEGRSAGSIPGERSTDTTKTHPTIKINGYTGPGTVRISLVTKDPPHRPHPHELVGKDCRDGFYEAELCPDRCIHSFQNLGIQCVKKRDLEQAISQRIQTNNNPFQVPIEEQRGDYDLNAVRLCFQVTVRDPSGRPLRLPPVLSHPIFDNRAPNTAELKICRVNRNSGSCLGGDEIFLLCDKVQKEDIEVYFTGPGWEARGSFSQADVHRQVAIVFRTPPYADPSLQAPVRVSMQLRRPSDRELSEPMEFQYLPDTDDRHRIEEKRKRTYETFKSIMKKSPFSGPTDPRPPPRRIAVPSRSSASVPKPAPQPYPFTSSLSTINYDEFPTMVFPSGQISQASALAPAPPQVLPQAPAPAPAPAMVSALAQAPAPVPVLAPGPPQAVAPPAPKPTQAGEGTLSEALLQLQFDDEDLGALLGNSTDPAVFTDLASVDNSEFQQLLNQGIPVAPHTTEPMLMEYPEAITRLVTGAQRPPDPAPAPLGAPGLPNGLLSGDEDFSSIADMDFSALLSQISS

Turning to IgκB 22-mer duplex, the Kd in series [1] and in series [2] was 4 nM throughout.
